Assay results as given in the DeepSol protein solubility set.

Assay: soluble on expression in E. coli; label from the status in PepcDB or PDB records

Sequence | soluble on expression in E. coli
MSLGVKVKVINGGVLISQDLSCAGQVSTSVALPILGACGARPTVLPTAILSTHTGFKDNTYLDLSNEMSRIMSHWQKIDLEFKAIYLGYLGKEALDFWIKNIEQIIRTNQVVLIDPAMADHGKMYRGLDTDYIKKMRQLIFKATILTPNITEAAFLLNEDIPENSLEKAQVLAEKLVQRFAIPNVIITGITLSKDKIGEVGITKEGKWSIIQEKMPGDFFGTGDMFASAFLAAVLYGKNLEKSCAIAAEFVKLAIIDMDQKLESLFGPNYAAGLPWLLSELEKEGHHHHHH | soluble
MSLGVTVSKNEAQRLENLTRDALLSTRRLSLIVDLDQTIIHTTVDPTVAEWMDEIHREEMKDAQEKANVPTEEVKGKGEETTTPPGSPGPGALGITVESPKEKNPNAEALRDVAKFQIADDLPPGYVKLKTKTTKGQNPPESEGRWYFTKPRPGLQRFLDEMCQLYEMHVYTMGTRTYADAIVKVIDPDGKIFGGRILSRDESGSFSSKNLKRLFPTDTSMVVVIDDRSDVWGDCPNLVKVVPYDFFLGIGDINSSFLPTNKSTEGHHHHHH | soluble
MSLGYKCVYMLSEIKEYLKNTVLFAFDFETSPRDKWRNDKSAALDAHKADITGISFSVSEGTAIYVPLKHRSGRNAENQAAIWDYLKLLFESKDVIKVAHNLAFESMFLYARGIVLQKPCYDTIAASQLTLKSKWEFRSLADSGLKTLAPALCKAEMTEFSTVTEGRFFDELNPQDEKTVRYACADSDYTLRLYHVFNQWFDRFLPKHRTIVEEVESPTSVYVGIMKYNGILVDKSAMLKKQAEAAEKIVSIRKEIAGIIGNVEIGANASTSAFKKYLFVDLGLPVMKTTAKHQEAADDETMILLKEWCATNRPELVRLFELVQEYRKWGKLKSTYIDGYLRFIDEDTGRIHPDLMPLGTETGRFASRNPNMQNCPQKDNDPIGVRKFIIAPAGKVLLSLDFSQIELRVGAFYCRDKRMLETYRTGGDIHAQTTSVIYRIPFEEAADKNAPHYKERRTIAKNCNFGVFYGLFPTGLQRTLKFKAGINPTLAECETIIQNLKSGYPGLAKWQDEVKKRAAVSCYSETWLGRRRYLLGIRSSDWGKKSFAERCALNTPIQGTAADILKLACGRIISGLPERLWLKPMLQIHDELVFELPEDKVDEAVVFIKECMETQPFPAFDVPIVAEASVGRNFGEMKEMEEGHHHHHH | soluble
MSLHAAAVGPSVLPDLREQVEQIIAEARRQGASACEVAVSLEQGLSTSVRQGEVETVEFNRDQGFGITLYAGQRKGSASTSATGEAAIRETVAAALAIARHTSEDECAGLADAALMARELPELDLYHPWSLSPEQAVERALACEAAAFAADKRVTKADGTTLNTHQGCRVYGNSHGFIGGYASTRHSLSCVMIAEGEGQMQRDYWYDVNRRGEALASAESIGRRAAERAASRLGARPVQTAEVPVLFAPEIAVGLFGHFLGAISGGSLYRKSSFLEGALGQRLFPEWLSIDERPHLVGALGSASFDSDGLATYAKPFVENGELVSYVLGTYSGRKLGLPSTANAGGVHNLFVSHGDEDQAALIRRMERGLLVTELMGQGVNLVTGDYSRGAAGYWVENGEIQFPVQEVTIAANLRDLFRRIVAVGKDIERRGNLHTGSVLVESMMVAGR | soluble
MSLHEASIALALIDVAGDVLREHGAARASALTVRVGQWSSVVPEALAAAFPACAEGTPLAGARLSIERVPGVGECPQHGPVELEVWRGLRCPLCGAPTPRLLQGDELELDQLELDQLELENLEGHHHHHH | not soluble
MSLHPETSTELADIRKKAGRRRSIVFVAGNFNIVHPGHLRLLKFAADCGDYLVVGVTADPGYDWMLPAELRLEGVRAIGVVDHAFLLHDAPEDFIAALQPSVVVKGKEHEGADNPEKAVLDGYGGRLVFSSGEVAFSSLDLIKREFREFNPSSIVKPLDYPRRHRFELLELKNVLAGFPKLRVLVLGDLIVDEYIACDPLGLSQEDPTIVVTPVLRELFVGGAGIVAGHAAGMGAQVALLTVGGGDAMADFARERLASYNVDATILTDESRPTTTKQRFRAGNKTLLRVSHLKQHDVDADLQTRMLETIEHRLPSTDLVVFSDFNYGCLPTRLVEAIGQACRARGVPMVADSQSSSQVGDISRFAEMLLIKPTEREARLAMRDFDSGLVVLVEALREKARAKNVILTLAAEGLLVHAETGSAGTVVTDRLPAFNTAPKDAAGAGDSFFVCAALALAIGTDIWRSAYLASIAAACQVGRIGNIPVTARDIIRELDTEGHHHHHH | soluble
MSLHQFQQDNQYFIFNFDRTFEQATEFFQAEFWQKQERVIGSAKGRGITYFLQTEDWFGVNCALRHYYRGGLWGKLNKDRYRFSALETTRSFAEFHLLQRLYEAGLPVPKPIAARIQKGKLGICYQADILTEKIENAQDLTALLQTQTLPKETWMQIGRLIRKLHDLQICHTDLNAHNILLQQTEQGQKCWLLDFDKCGEKSADFWKVQNLNRLKRSFEKEVGRMNIQFTEQNWADLTSAYHQEGHHHHHH | soluble
MSLIDLYDLRMPQRTGTYVLHEENLAIIETGPSPSVPHLLAGLKALHIDPADIRYIIVTHIHLDHAGGVGVLLEHCPNATVIVHPKGKRHLADPSRLIAGAKAVYGEQFDALFDPIVPVPEERLLVKEDGETLVLSAERTLTFYDTPGHANHHFSIYDSYSGGVFTGDTIGVFYPQLQEAGLAFCLPSTSPNQFNPEAMKQSAERLEKLNPTRIYFGHFGALDQPEEAFRQLRFWLPKFVAAGKEVIARHPEAPAAEQAKAVTKLLHNDITAFLNECSIPASSPVYKVIELDLQVCAMGIIDYWRKQRLEHHHHHH | not soluble
MSLIGLDLDSAPDLIQSVPAPRLRRQVWLRTASGQRLAYATSWWEASHVDEYLQNRSLPIWASLARLRTELYRDVRGIYYGNSEALQLGFGVDGPFWGRHYLFWHHGQPLTLIYEVFSPYLTKYLGPMQLSSRNGKILEHHHHHH | not soluble
MSLIIRTDTSPHRAAAKLSPNELTLTGARLVLPDEVYDGTVHIIDGYIDDIAAGRSTVPGAIDLEGGYVTPGLIDLHTDNSEKHALPRAGVVWNHLSAVMAHDALVIAAGITTVFDSLCIGSTTRDHTRQADRARILPVLIDGIREARAHGLLRADHFLHLRCEVTDEEVMSVFTPLVGDPLVKLVSVMDHAPGHRQSPQLDRFREMQIKQYGWSAEDADRRIEAWIDASRTIGPQNRSRIIALARARQLPLASHDDQTPEHVREANDAGVLISEFPTTRAAAEIARSLGICILMGAPNIVRGSSHSGNISARELATTGHLDILASDYVPASLLHGAFQLTRDPIGMSLTKAISTVSSVPASVTGFCDRGMIGIGGRADLCHIVEIADIPVVRGVWRQGRQVFEGHHHHHH | not soluble
MSLIMITAEMVPPDLLIKRLAIYLKENVKTVDPPEWALLAKTASFKERVPDNAEDWWYIRAASLLRKLYVNSIIGIEKTRTIYGGRKRRGTRPEKFVKAPGHVNRLIFQQLEKAGLVQKIKNKGRSLSPKGRSLLDKLALEIFKELAENNTSLKVYLELEHHHHHH | soluble
MSLINGSDPRYNFNVAPYPYCRLCKGHKHMCGLRVCPILERFQEVFPRLDLHGDISTSTPPSIFIGEYNYPSVYGGIMSVVDPERPYARRDMFDLGMPEIIERNANLFRNVKTVSVHNLSEKTVEQIQEAAMALNELRVESRIVGKEKHFDFFDSPVGPMYKSENIKVYGNAKTPRAAQDVIYDIDLNSTEALKILYMNSIDINYITGLLSGGLLGIEKKRKLVPTRWSITAVDDTISRYLKSDALNYESIDKPMVFSYSRFGNHFNIILLPRGTAFEMQEYWEIGSLWGSDGRVSIDFEGHHHHHH | soluble
MSLINRKDALPITRQCRLLDLSRSGFYYTPRPVSAKDLELMRQIDEIHLAFPFYGSRKIRDELWARKHNVGLDKVRRLMRRMGIEALYVKPRLSLSYPEHVKYPYLLRRLEINRANQVWITDITYIPMAKGFCYLVAIMDEGHHHHHH | not soluble
MSLIRSMTAYARREIKGEWGSATWEMRSVNQRYLETYFRLPEQFRSLEPVVRERIRSRLTRGKVECTLRYEPDVSAQGELILNEKLAKQLVTAANWVKMQSDEGEINPVDILRWPGVMAAQEQDLDAIAAEILAALDGTLDDFIIARETEGQALKVLIEQRLEGVTAEVAKVRAHMPEILQWQRERLIAKLEDAQVQLENNRLEQELVLLAQRIDVAEELDRLEAHAKETYNILKKKEAVGRRLDFMMQEFNRESNTLASKSINAEVTNSAIELKVLIEQMREQIQNIEEGHHHHHH | soluble
MSLKAKYVWVALLALTFFGCDDNTGTIGWDMLPDSDQNINGRYTTYELTTNSDLSGPVFAKTSVGYVGKFTDKEFGEYEASFLAQLNSPDGISFPSVYDPETNPKGVMAGDSIHTAELILYYKSYFGDSINPCRMTVYELDENLTQNYYTDIDPLKYYNPNNLLARKAYTAVDQSLSDSIRNSDDFYPNVRLTSEEITKLGKRIYRLNRDHPEYFKTSEAFINNVFKGIYAKNDYGNGTILYVDQINLNVVIRCHEKDSLGNNLKKKNGADSLYYTTRTFATTKEVIQANKFVNSEKLNEIAKKTDCTYLKSPAGIFTQATLPINKIYEELSHDTINAVKLTFNSYNQPDNGKFSMKAPTYVLLLREKERQSFFEENKLTDNITSYLAVHNAIISNKPTTNQYVFTNLTRLINACVNEKQEAKKKAGDSWNEAAWEAANPDWNKVVLIPVLVQYDSSSNKNMISIQHDLQPGYVKLEGGPDGTKLKLEVTYTNFNGKEGHHHHHH | not soluble
MSLKALNKETAPKVQRPERIIQFGEGNFLRAFVDWIIYNMNQKTDFNSSVVVVQPIDKGMVDMLNAQDDLYHVNLQGLDKGEVVNSLTMIDVISRALNPYTQNDEFMKLAEQPEMRFVISNTTEAGIAFDPTCKLEDAPASSYPGKLTQLLYHRFKTFNGDKTKGLIIFPCELIFLNGHKLKETIYQYIDLWNLGNEFKTWFEEACGVYATLVDRIVPGFPRKDIAAIKEKIQYDDNLVVQAEIFHLWVIEAPQEVAKEFPADKAGLNVLFVPSEAPYHERKVTLLNGPHTVLSPVAYLSGVNIVRDACQHEVIGKYIHKVMFDELMETLNLPKEELKKFAEDVLERFNNPFVDHAVTSIMLNSFPKYETRDLPGLKTYLERKGELPKGLVLGLAAIITYYKGGVRADGAEIVPNDAPEIMNLLKELWATGCTKKVTEGVLAAEFIWGEDLNKIPGLAAAVKADLDSIQEKGMLETVKGILEGHHHHHH | soluble
MSLKAPVDFEQEVAPLLSQRCVSCHSPNIKKGELSLAGPEDLLANGYVVPGDPAGSYLLEVVSPAGDDPAAMPKLGDALAEPEVALLRRWIEQGAVWPDGFVIREASKADRSWWSLQPLADIHPPEVAAAPAAWRQNPIDRFVWAKLSEANLKPNSPADRRTLIRRATFDLTGLPPTAEEIDTFVASDSPDAYPQLIDRMLASPRYGERWGRHWLDVIRFGESRGFERNQIITNLWPFRDYVIRSINEDKPFDQFIREHLAGDVIAPNTPQVEVGSAFLVAGPYDDVGNEGHHHHHH | soluble
MSLKARTKIEKQVAASNEKLTAISPKVMTWAVRKVAGHVCFRTSAHKCTCGECGRQFDYEGKGKSVCCPYCGTRLQIKDTLKRTIKEAYYFSSLEVIDHLQVQRVFRLETTFRKGLPMEVDYWEACRLWLNAEGKSAVTARARTLSYYVDCFDWASEITLKRPNEVHWLIADTYVYPHYRLLPELKRNGMKGKLPDCYPMKLMKAVLTDSRMETILKSKDLHAVSYFVNRPLELDRCWQSYKVATRHHYRPSDMGLWADTIRLLEQCGKDICSPRYICPQNLKAEHDYWMNRHNQMEQKRRSQEQIQRAKRKEAEFYKEKSRYFGITITDKDLVISVLDTLEAFQAEGNALHHCVFQCEYYAKADSLILSAHDKEGNRIETIEFSLTEGKVIQSRGLCNTNTPHHDRIVRLVNAHAHQILAAKQTAEGHHHHHH | not soluble
